Source: article PMC4937676 (Asia Oceania Journal of Nuclear Medicine and Biology, 2016)
Where two headings read alike, the source gives them in different places. Values belong to the compound of their own block, whether it stands above or below them.

Assays:
in vivo = details: male, Syrian, rat, iv, 5.55 MBq, total radioactivity, Percentage of injected dose per gram (%ID/g)
[1] = cited from earlier work
Experimental: In this regard, in a study by Ugur et al., the absorbed dose of kidneys was calculated to be 1090 mGy/MBq, based on biodistribution studies on AR42J rat pancreatic tumors ([2]), whereas an absorbed dose of 0.082 mGy/MBq was reported in kidneys of patients with disseminated neuroendocrine tumors ([37]). However, the absorbed dose of the pancreas as a somatostatin receptor-positive organ was not evaluated in previous research. || As mentioned earlier, the dose delivered to the pancreas has not been evaluated in previous literature. […] On the other hand, the absorbed dose of adrenal glands was somewhat lower than the value reported in the mentioned study, while being in great accordance with the absorbed dose of liver after ^68Ga-DOTATATE injection (0.015 mGy/MBq) in a study by Walker et al. ([41]). || In the present study, the effective absorbed dose was calculated at 0.026 mSv/MBq, which was higher than the value reported by Sandstrom and colleagues (0.021 mSv/MBq). The lower effective absorbed dose in the mentioned study corresponded to lower organ consideration for dosimetric calculations, compared to the present study. Finally, the dose received by critical organs was well within the acceptable range for diagnostic nuclear medicine procedures ([31], [42]).

[2] = design: species or system human
Experimental: The accumulated source activity for each animal organ was calculated according to Equation 4, where A (t) is the activity of each organ at time t: For this purpose, data points representing the non-decay corrected percentage of the injected dose were created. A linear approximation was applied between the two experimental points of time. The curves were extrapolated to infinity by fitting the tail of each curve to a mono-exponential curve with an exponential coefficient equal to the physical decay constant of ^68Ga. The accumulated activity in animals was calculated by computing the area under the curves, extrapolated to the accumulated activity in human organs, using a method proposed by Sparks et al. (Equation 5) and the standard mean weight of each human organ ([21], [22], [23]): The absorbed dose in human organs was calculated by the Radiation Absorbed Dose Assessment Resource (RADAR) formalism, based on the biodistribution data in rats ([22]): In the equation above, ni is the number of radiations with energy E emitted per nuclear transition, Ei is the energy per radiation (MeV), Qi is the fraction of emitted energy absorbed by the target, m is the mass of the target region (kg) and k is the proportionality constant [drawing 8] DF represents the physical decay characteristics of the radionuclide, the range of emitted radiations and the organ size and configuration, expressed in mGy/MBq.s ([24]). In this study, DF values were obtained from OLINDA/EXM software ([22]). The effective absorbed dose in each organ was calculated, using the following formula: […] where HT is the equivalent absorbed dose in each organ and WT is the tissue-weighing factor, which represents a subjective balance between different stochastic health risks ([25]). WT was obtained from the International Commission on Radiological Protection (ICRP) publication 103 ([26]).

[3] = Biodistribution in Syrian rats after intravenous injection; details: male Syrian rats; for Percentage of injected dose per gram (%ID/g), Blood / Percentage of injected dose per gram (%ID/g), Bone / Percentage of injected dose per gram (%ID/g), Intestine / Percentage of injected dose per gram (%ID/g), Kidneys / Percentage of injected dose per gram (%ID/g), Liver / Percentage of injected dose per gram (%ID/g), Spleen / Percentage of injected dose per gram (%ID/g), Stomach: 5.55 MBq i.v. tail vein, mean ± SD, n = 4
[4] = 5.55 MBq i.v., maximum over 15-120 min, time not stated

SMILES: C[C@@H](O)[C@@H]1NC(=O)[C@H](CCCCN)NC(=O)[C@@H](Cc2c[nH]c3ccccc23)NC(=O)[C@H](Cc2ccc(O)cc2)NC(=O)[C@@H](NC(=O)[C@@H](Cc2ccccc2)NC(=O)CN2CCN(CC(=O)O)CCN(CC(=O)O)CCN(CC(=O)O)CC2)CSSC[C@@H](C(=O)N[C@H](CO)[C@@H](C)O)NC1=O [^68Ga-DOTATOC, Gallium-68 DOTA-DPhe^1-Tyr^3-Octreotide, metal not drawn]
tissue uptake at 0.25 h (in vivo; Adrenal): 0.91 ± 0.05 %ID/g
tissue uptake at 0.5 h (in vivo; Adrenal): 0.75 ± 0.06 %ID/g
tissue uptake at 1 h (in vivo; Adrenal): 0.6 ± 0.04 %ID/g
tissue uptake at 2 h (in vivo; Adrenal): 0.44 ± 0.01 %ID/g
tissue uptake at 0.25 h (in vivo; Blood): 4.51 ± 0.21 %ID/g
tissue uptake at 0.5 h (in vivo; Blood): 1.98 ± 0.15 %ID/g
tissue uptake at 1 h (in vivo; Blood): 1.53 ± 0.11 %ID/g
tissue uptake at 0.25 h (in vivo; Bone): 0.95 ± 0.08 %ID/g
tissue uptake at 0.5 h (in vivo; Bone): 0.58 ± 0.03 %ID/g
tissue uptake at 2 h (in vivo; Bone): 0.05 %ID/g
tissue uptake at 0.25 h (in vivo; Heart): 1.68 ± 0.08 %ID/g
tissue uptake at 0.5 h (in vivo; Heart): 1.01 ± 0.07 %ID/g
tissue uptake at 1 h (in vivo; Heart): 0.73 ± 0.07 %ID/g
tissue uptake at 2 h (in vivo; Heart): 0.03 %ID/g
tissue uptake at 0.25 h (in vivo; Intestine): 0.48 ± 0.06 %ID/g
tissue uptake at 0.5 h (in vivo; Intestine): 0.56 ± 0.05 %ID/g
tissue uptake at 1 h (in vivo; Intestine): 0.39 ± 0.04 %ID/g
tissue uptake at 2 h (in vivo; Intestine): 0.38 ± 0.04 %ID/g
tissue uptake at 0.25 h (in vivo; Kidneys): 11.9 ± 0.21 %ID/g
tissue uptake at 0.5 h (in vivo; Kidneys): 8.99 ± 0.13 %ID/g
tissue uptake at 1 h (in vivo; Kidneys): 8 ± 0.18 %ID/g
tissue uptake at 2 h (in vivo; Kidneys): 2.51 ± 0.1 %ID/g
tissue uptake at 0.25 h (in vivo; Liver): 0.79 ± 0.09 %ID/g
tissue uptake at 0.5 h (in vivo; Liver): 0.58 ± 0.08 %ID/g
tissue uptake at 1 h (in vivo; Liver): 0.46 ± 0.03 %ID/g
tissue uptake at 2 h (in vivo; Liver): 0.2 %ID/g
tissue uptake at 0.25 h (in vivo; Lung): 0.35 ± 0.06 %ID/g
tissue uptake at 1 h (in vivo; Lung): 0.13 ± 0.01 %ID/g
tissue uptake at 2 h (in vivo; Lung): 0.02 %ID/g
tissue uptake at 0.25 h (in vivo; Muscle): 0.4 ± 0.05 %ID/g
tissue uptake at 2 h (in vivo; Muscle): 0.02 %ID/g
tissue uptake at 0.25 h (in vivo; Pancreas): 12.8 ± 0.28 %ID/g
tissue uptake at 0.5 h (in vivo; Pancreas): 9.55 ± 0.18 %ID/g
tissue uptake at 1 h (in vivo; Pancreas): 6.62 ± 0.22 %ID/g
tissue uptake at 2 h (in vivo; Pancreas): 5.31 ± 0.15 %ID/g
tissue uptake at 0.25 h (in vivo; Salivary gland): 1.22 ± 0.1 %ID/g
tissue uptake at 0.5 h (in vivo; Salivary gland): 0.77 ± 0.04 %ID/g
tissue uptake at 1 h (in vivo; Salivary gland): 0.54 ± 0.03 %ID/g
tissue uptake at 1 h (in vivo; Skin): 0.08 %ID/g
tissue uptake at 2 h (in vivo; Skin): 0.03 %ID/g
tissue uptake at 0.25 h (in vivo; Spleen): 0.38 ± 0.04 %ID/g
tissue uptake at 0.5 h (in vivo; Spleen): 0.93 ± 0.07 %ID/g
tissue uptake at 1 h (in vivo; Spleen): 0.16 ± 0.02 %ID/g
tissue uptake at 2 h (in vivo; Stomach): 0.17 ± 0.02 %ID/g
tissue uptake at 1 h (in vivo; Thyroid): 0.16 ± 0.04 %ID/g
Absorbed dose of kidneys [1]: 0.082 mGy/MBq
Effective absorbed dose [1]: 0.021 mSv/MBq
Effective absorbed dose [2]: 0.026 mSv/MBq
Equivalent absorbed dose in humans, Adrenals [2]: 0.010 mGy/MBq
Equivalent absorbed dose in humans, Bone Surf [2]: 0.008 mGy/MBq
Equivalent absorbed dose in humans, Heart [2]: 0.004 mGy/MBq
Equivalent absorbed dose in humans, Kidneys [2]: 0.074 mGy/MBq
Equivalent absorbed dose in humans, Liver [2]: 0.010 mGy/MBq
Equivalent absorbed dose in humans, Lungs [2]: 0.001 mGy/MBq
Equivalent absorbed dose in humans, Red Marrow [2]: 0.003 mGy/MBq
Equivalent absorbed dose in humans, Small Intestine [2]: 0.008 mGy/MBq
Equivalent absorbed dose in humans, Spleen [2]: 0.009 mGy/MBq
Equivalent absorbed dose in humans, Stomach [2]: 0.003 mGy/MBq
Equivalent absorbed dose in humans, Total Body [2]: 0.008 mGy/MBq

Percentage of injected dose per gram (%ID/g), Blood ([3]; 15 min after injection): 3.18±0.17 %ID/g
Percentage of injected dose per gram (%ID/g), Bone ([3]; 15 min after injection): 0.56±0.06 %ID/g
Percentage of injected dose per gram (%ID/g), Intestine ([3]; 15 min after injection): 0.71±0.06 %ID/g
Percentage of injected dose per gram (%ID/g), Kidneys ([3]; 15 min after injection): 0.70±0.09 %ID/g
Percentage of injected dose per gram (%ID/g), Liver ([3]; 15 min after injection): 0.91±0.02 %ID/g
Percentage of injected dose per gram (%ID/g), Spleen ([3]; 15 min after injection): 0.51±0.09 %ID/g
Percentage of injected dose per gram (%ID/g), Stomach ([3]; 15 min after injection): 0.41±0.11 %ID/g
Percentage of injected dose per gram (%ID/g), Blood ([3]; 30 min after injection): 2.98±0.12 %ID/g
Percentage of injected dose per gram (%ID/g), Bone ([3]; 30 min after injection): 0.91±0.10 %ID/g
Percentage of injected dose per gram (%ID/g), Intestine ([3]; 30 min after injection): 0.82±0.08 %ID/g
Percentage of injected dose per gram (%ID/g), Kidneys ([3]; 30 min after injection): 0.41±0.10 %ID/g
Percentage of injected dose per gram (%ID/g), Liver ([3]; 30 min after injection): 1.50±0.12 %ID/g
Percentage of injected dose per gram (%ID/g), Spleen ([3]; 30 min after injection): 0.70±0.06 %ID/g
Percentage of injected dose per gram (%ID/g), Stomach ([3]; 30 min after injection): 0.56±0.07 %ID/g
Percentage of injected dose per gram (%ID/g), Blood ([3]; 60 min after injection): 2.53±0.11 %ID/g
Percentage of injected dose per gram (%ID/g), Bone ([3]; 60 min after injection): 1.20±0.11 %ID/g
Percentage of injected dose per gram (%ID/g), Intestine ([3]; 60 min after injection): 0.89±0.05 %ID/g
Percentage of injected dose per gram (%ID/g), Kidneys ([3]; 60 min after injection): 1.42±0.12 %ID/g
Percentage of injected dose per gram (%ID/g), Liver ([3]; 60 min after injection): 0.78±0.08 %ID/g
Percentage of injected dose per gram (%ID/g), Spleen ([3]; 60 min after injection): 1.03±0.10 %ID/g
Percentage of injected dose per gram (%ID/g), Stomach ([3]; 60 min after injection): 1.21±0.09 %ID/g
Percentage of injected dose per gram (%ID/g), Blood ([3]; 120 min after injection): 2.44±0.14 %ID/g
Percentage of injected dose per gram (%ID/g), Bone ([3]; 120 min after injection): 1.05±0.09 %ID/g
Percentage of injected dose per gram (%ID/g), Intestine ([3]; 120 min after injection): 0.61±0.07 %ID/g
Percentage of injected dose per gram (%ID/g), Kidneys ([3]; 120 min after injection): 0.91±0.08 %ID/g
Percentage of injected dose per gram (%ID/g), Liver ([3]; 120 min after injection): 0.60±0.05 %ID/g
Percentage of injected dose per gram (%ID/g), Spleen ([3]; 120 min after injection): 1.43±0.12 %ID/g
Percentage of injected dose per gram (%ID/g), Stomach ([3]; 120 min after injection): 1.54±0.14 %ID/g
Activity content in the bone, maximum value [3, 4]: 1.20 %ID/g
Activity content in the stomach, maximum value [3, 4]: 1.54 %ID/g
SMILES: [Cl][68Ga]([Cl])[Cl] [^68GaCl3]
